# Measured values as given in publication PMC6250708, “Arabidopsis thaliana DGAT3 is a [2Fe-2S] protein involved in TAG biosynthesis” (Scientific Reports, 2018).
# B1: Δ46AtDGAT3 (Arabidopsis thaliana acyl-CoA:diacylglycerol acyltransferase 3 lacking the putative chloroplast transit peptide) (domain or fragment, UniProt Q9C5W0 47-360, looked up)
# chain: CNNEFADKGHVNYYIEPTRCGEEKEKVKVMEKEKKALKKKAKVLKSLSKNLDMFSSIGFGLDPEAGLVGEIQTKTISEATEILVKQLEQLKAEEKILKKQRKEEKAKAKAMKKMTEMDSESSSSSESSDSDCDKGKVVDMSSLRNKAKPVLEPLQPEATVATLPRIQEDAISCKNTSEALQIALQTSTIFPSMANPGQTLKTVEAVSVVGLPLNRVEVCMGGKCKRSGGALLLDEFQRAMTGFEGSAVACKCMGKCRDGPNVRVVKETDAVMTDSVRTPSKTLCVGVGLQDVETIVTSFFDEECSREGLGSVSY
# notes: AtDGAT3 (At1g48300), Arabidopsis thaliana, 360-residue protein of the revised TAIR annotation (GenBank AEE32272); the 46 N-terminal residues (putative chloroplast transit peptide predicted by ChloroP 1.1) removed; calculated mass of the His-tagged protein 35.4 kDa; Cloned NdeI/XhoI into pET-32b(+), in frame with a C-terminal 6xHis tag; the NdeI site of the forward primer supplies a start …
# Target: the molecule itself
# Assay: SEC; Superdex 200 10/300 GL, 4 °C, 100 mM triethanolamine pH 7.5, 300 mM NaCl, 5% glycerol, 1% n-octyl-β-D-glucopyranoside, 1 mM TCEP; column calibrated with Bio-Rad gel filtration standard; oligomer size assumes a globular protein
protein,measurement,value
B1,stoichiometry N,3
